Data set [1] concerns Fen1 (flap endonuclease 1) (Sulfolobus solfataricus). The data set is described as follows: FRET titration. To be noted: 10 mM Ca2+, no PCNA; 10 mM Ca2+ (prevents cleavage), 20 C / room temperature; binding buffer, salt and pH not in held text (hybridization buffer 20 mM Tris-HCl pH 7.8, 25 mM NaCl).
For data set [2], the system named is Fen1 (flap endonuclease 1);PCNA heterotrimer (PCNA1/PCNA2/PCNA3) (Sulfolobus solfataricus;Sulfolobus solfataricus). The experiment in a line: FRET titration. To be noted: Fen1 titrated with 2 uM PCNA, 10 mM Ca2+; 10 mM Ca2+ (prevents cleavage), 20 C / room temperature; binding buffer, salt and pH not in held text (hybridization buffer 20 mM Tris-HCl pH 7.8, 25 mM NaCl).

For data set [3] the test system is unchanged. The data set is described as follows: PIFE (Cy3). Particulars: PCNA titrated with 5 uM Fen1, 10 mM Ca2+; 10 mM Ca2+ (prevents cleavage), 20 C / room temperature; binding buffer, salt and pH not in held text (hybridization buffer 20 mM Tris-HCl pH 7.8, 25 mM NaCl).
Data set [4] concerns Fen1 (flap endonuclease 1);PCNA12 heterodimer (PCNA1/PCNA2) (Sulfolobus solfataricus;Sulfolobus solfataricus). The data set is described as follows: PIFE (Cy3). To be noted: PCNA12 titrated with 5 uM Fen1, 10 mM Ca2+; 10 mM Ca2+ (prevents cleavage), 20 C / room temperature; binding buffer, salt and pH not in held text (hybridization buffer 20 mM Tris-HCl pH 7.8, 25 mM NaCl).
Data set [5] has as its system Fen1 (flap endonuclease 1);PCNA-Cy5 heterotrimer (Sulfolobus solfataricus;Sulfolobus solfataricus). The experiment in a line: intermolecular FRET. Particulars: PCNA-Cy5 titrated with 5 uM Fen1; substrate of the Kd fit not explicitly stated; 10 mM Ca2+ (prevents cleavage), 20 C / room temperature; binding buffer, salt and pH not in held text (hybridization buffer 20 mM Tris-HCl pH 7.8, 25 mM NaCl).

In data set [6] the test system is Fen1 (flap endonuclease 1) (Sulfolobus solfataricus). The experiment in a line: ensemble FRET. To be noted: 10 mM Ca2+, no PCNA, 20 C; 10 mM Ca2+ (prevents cleavage), 20 C / room temperature; binding buffer, salt and pH not in held text (hybridization buffer 20 mM Tris-HCl pH 7.8, 25 mM NaCl).
Data set [7] concerns Fen1 (flap endonuclease 1);PCNA heterotrimer (PCNA1/PCNA2/PCNA3) (Sulfolobus solfataricus;Sulfolobus solfataricus). The experiment in a line: ensemble FRET. Particulars: Fen1 titrated with 2 uM PCNA, 10 mM Ca2+, 20 C; 10 mM Ca2+ (prevents cleavage), 20 C / room temperature; binding buffer, salt and pH not in held text (hybridization buffer 20 mM Tris-HCl pH 7.8, 25 mM NaCl).
Data set [8] relates to Fen1 (flap endonuclease 1) (Sulfolobus solfataricus). The experiment in a line: smFRET. To be noted: 10 mM Ca2+, no PCNA; 10 mM Ca2+ (prevents cleavage), 20 C / room temperature; binding buffer, salt and pH not in held text (hybridization buffer 20 mM Tris-HCl pH 7.8, 25 mM NaCl).
Data set [9] has as its system Fen1 (flap endonuclease 1);PCNA heterotrimer (PCNA1/PCNA2/PCNA3) (Sulfolobus solfataricus;Sulfolobus solfataricus). The data set is described as follows: smFRET. Particulars: Fen1 titrated with 2 uM PCNA, 10 mM Ca2+; 10 mM Ca2+ (prevents cleavage), 20 C / room temperature; binding buffer, salt and pH not in held text (hybridization buffer 20 mM Tris-HCl pH 7.8, 25 mM NaCl).

The target in data set [10] is Fen1 (Saccharolobus solfataricus) (UniProt Q980U8). To be noted: cited from earlier work.
Data set [11] has as its target T1, Cy5 acceptor-labelled Sulfolobus solfataricus PCNA heterotrimer (PCNA1 N131C-Cy5, PCNA2, PCNA3) (Sulfolobus solfataricus, UniProt P57766 1-249; Q97Z84 1-245; P57765 1-244, N131C, Cy5-maleimide on the single cysteine of N131C).
T1 construct: PCNA1 subunit, Sulfolobus solfataricus, with the point mutation N131C; PCNA2 subunit, Sulfolobus solfataricus, unlabelled; PCNA3 subunit, Sulfolobus solfataricus, unlabelled; Labelling yield about 80%; also called PCNA-Cy5; acceptor-labelled PCNA; copies: + +
T1 sequence (looked up) 1: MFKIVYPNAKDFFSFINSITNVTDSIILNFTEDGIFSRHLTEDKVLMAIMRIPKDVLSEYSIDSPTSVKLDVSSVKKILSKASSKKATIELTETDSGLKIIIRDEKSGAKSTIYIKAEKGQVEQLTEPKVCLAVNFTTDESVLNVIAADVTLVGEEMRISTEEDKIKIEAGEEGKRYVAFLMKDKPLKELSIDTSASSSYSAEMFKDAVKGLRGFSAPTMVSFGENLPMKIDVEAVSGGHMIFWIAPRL
T1 sequence (looked up) 2: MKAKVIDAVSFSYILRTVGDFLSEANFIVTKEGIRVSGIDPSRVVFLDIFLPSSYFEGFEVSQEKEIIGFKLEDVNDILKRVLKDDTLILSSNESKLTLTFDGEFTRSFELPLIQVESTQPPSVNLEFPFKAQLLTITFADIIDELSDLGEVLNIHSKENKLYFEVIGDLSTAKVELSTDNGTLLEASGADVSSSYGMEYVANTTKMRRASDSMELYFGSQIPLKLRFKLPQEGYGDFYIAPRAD
T1 sequence (looked up) 3: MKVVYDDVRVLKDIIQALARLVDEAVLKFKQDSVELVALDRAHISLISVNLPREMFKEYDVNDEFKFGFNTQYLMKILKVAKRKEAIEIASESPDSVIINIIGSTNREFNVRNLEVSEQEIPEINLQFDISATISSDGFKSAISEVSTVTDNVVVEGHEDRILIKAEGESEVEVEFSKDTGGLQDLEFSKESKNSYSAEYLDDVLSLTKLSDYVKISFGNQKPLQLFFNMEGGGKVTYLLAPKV
The data set is described as follows: FRET or BRET; ensemble inter-molecular FRET between Cy3-labelled double-flap DNA and Cy5-labelled PCNA; PCNA-Cy5 titrated, DNA pre-equilibrated with 5 uM Fen1. To be noted: both partners purified. For orientation: BRET reads energy transfer from a luciferase to a nearby fluorophore.

The target in data set [12] is T2, Sulfolobus solfataricus PCNA heterotrimer (PCNA1, PCNA2, PCNA3) (Sulfolobus solfataricus, UniProt P57766 1-249; Q97Z84 1-245; P57765 1-244).
T2 construct: PCNA1 subunit of the heterotrimeric PCNA, Sulfolobus solfataricus; PCNA2 subunit of the heterotrimeric PCNA, Sulfolobus solfataricus; PCNA3 subunit of the heterotrimeric PCNA, Sulfolobus solfataricus; also called heterotrimeric PCNA; sliding clamp; copies: + +
T2 sequence (looked up) 1: T1 sequence (looked up) 1 with C131N
T2 sequence (looked up) 2: T1 sequence (looked up) 2
T2 sequence (looked up) 3: T1 sequence (looked up) 3
The experiment in a line: other fluorescence titration; protein-induced fluorescence enhancement (PIFE) of Cy3 on the 3F-duplex of a double-flap DNA; PCNA or PCNA12 titrated into DNA pre-incubated with 5 uM Fen1, 10 mM Ca2+; 30 mM HEPES pH 7.6, 40 mM KCl, 5% glycerol, 0.1 mg/ml BSA, 20 C. Particulars: both partners purified.

The target of data set [13] is T3, Sulfolobus solfataricus PCNA1-PCNA2 heterodimer (PCNA12) (Sulfolobus solfataricus, UniProt P57766 1-249; Q97Z84 1-245).
T3 construct: PCNA1 subunit, Sulfolobus solfataricus; PCNA2 subunit, Sulfolobus solfataricus; also called PCNA12 complex
T3 sequence (looked up) 1: T1 sequence (looked up) 1 with C131N
T3 sequence (looked up) 2: T1 sequence (looked up) 2
The data set is described as above. To be noted: both partners purified.

The text below walks through data of publication PMC3919604, “Single-molecule characterization of Fen1 and Fen1/PCNA complexes acting on flap substrates” (Nucleic Acids Research, 2013).

Numbering of substitutions follows the chain as printed. A value given as a limit tells only on which side of the number the result lay.

The Kd is the constant that tells how readily two partners part at equilibrium.

In the case of “5'-flap substrate lacking the 3' extrahelical nucleotide”, the Kd was over 10000 nM in [1] and 700 nM in data set [2].

As for Double flap, Cy3 in 3F-duplex, the figures for the equilibrium dissociation constant (Kd) in data set [3], in data set [4] and in data set [5] were 160 nM, 360 nM and 117 nM, respectively.

For “Flap-12/23/13 double flap (global fit of three labelled versions)”, the dissociation constant Kd came out at 14 nM in [6] and 3 nM in data set [7].

Turning to “Flap-23 double flap, single-molecule, Cy3/Cy5, biotin”, the equilibrium dissociation constant (Kd) is 23 nM in [8] and 1.6 nM in data set [9].

PCNA (from UniProt P57766): the Kd in [10] is 210 nM.

B1: Sulfolobus solfataricus Flap endonuclease 1 (Fen1) (enzyme, UniProt Q980U8 1-349, looked up)
chain: MDLADLVKDVKRELSFSELKGKRVSIDGYNALYQFLAAIRQPDGTPLMDSQGRVTSHLSGLFYRTINILEEGVIPIYVFDGKPPEQKSEELERRRKAKEEAERKLERAKSEGKIEELRKYSQAILRLSNIMVEESKKLLRAMGIPIVQAPSEGEAEAAYLNKLGLSWAAASQDYDAILFGAKRLVRNLTITGKRKLPNKDVYVEIKPELIETEILLKKLGITREQLIDIGILIGTDYNPDGIRGIGPERALKIIKKYGKIEKAMEYGEISKKDINFNIDEIRGLFLNPQVVKPEEALDLNEPNGEDIINILVYEHNFSEERVKNGIERLTKAIKEAKGASRQTGLDRWF
notes: Flap endonuclease 1 (Fen1), Sulfolobus solfataricus
With B1, the figures for the Kd in data set [11], in data set [12] and in data set [13] were 117 ± 34 nM, 160 ± 14 nM and 360 ± 30 nM, respectively.
